Experiments:
[1] = system: monoclonal antibody MV-001; test: In vitro binding assay (ELISA), parental antibody MV-001; set-up: species or system C57/Bl6 mice; settings: peptide-BSA on ELISA plate; OD halfmax, dilution factor 1:X of parental AB MV-001
Procedure: 1. In vitro binding assay (ELISA)
Peptides derived from Phage Display as well as variants thereof were coupled to BSA and bound to ELISA plates (1 μM; as indicated in the respective figures) and subsequently incubated with the monoclonal antibody that was used for the screening procedure to analyse binding capacity of identified peptides.

[2] = system: monoclonal antibody MV-001; test: In vitro inhibition assay (ELISA), MV-001 binding to original epitope; set-up: species or system C57/Bl6 mice; settings: OD at 10 μg peptide compared to original peptide
Procedure: 2. In vitro inhibition assay (ELISA)
Different amounts of peptides (concentrations ranging from 10 μg to 0.08 μg; serial dilutions), derived from Phage Display were incubated with the monoclonal antibody that was used for the screening procedure. Peptides diminishing subsequent binding of the antibody to the original epitope coated on ELISA plates were considered as inhibiting in this assay.

[3] = molecular target: monoclonal antibody MV-001; test: ELISA, peptide-BSA coated, MV-001; settings: for Binding Capacity: scale: code
[4] = molecular target: monoclonal antibody MV-001; test: inhibition ELISA; competitor: coated original epitope p4371; settings: for Inhibition Capacity: scale: code

Molecule	Inhibition Capacity [2]	Binding Capacity [3]	Inhibition Capacity (code (weaker than original epitope)) [4]	also measured
SEFKHC [p4801]	1 (Weaker than original epitope (OD of 10 μg peptide below 3 times of original peptide))	–	–	Binding Capacity [1]: 3 (strong binding :>20000)
TSFRHGC [p4382]	1 (Weaker than original epitope (OD of 10 μg peptide below 3 times of original peptide))	–	–	–
LPFRHGC [p4388]	1 (Weaker than original epitope (OD of 10 μg peptide below 3 times of original peptide))	–	–	–
HEFRHC [p4803]	2 (strong inhibition (as original epitope; OD of 10 μg peptide below 2 times of original peptide))	–	–	Binding Capacity [1]: 3 (strong binding :>20000)
CHEFRH [p4802]	2 (strong inhibition (as original epitope; OD of 10 μg peptide below 2 times of original peptide))	–	–	Binding Capacity [1]: 3 (strong binding :>20000)
SHFRHGC [p4389]	1 (Weaker than original epitope (OD of 10 μg peptide below 3 times of original peptide))	–	–	–
TPFRHTC [p4384]	1 (Weaker than original epitope (OD of 10 μg peptide below 3 times of original peptide))	–	–	–
EELRHSVC [p4746]	1 (Weaker than original epitope (OD of 10 μg peptide below 3 times of original peptide))	–	–	Binding Capacity [1]: 3 (strong binding :>20000)
EEFKYSC [p4393]	1 (Weaker than original epitope (OD of 10 μg peptide below 3 times of original peptide))	–	–	–
SAFRHHC [p4387]	1 (Weaker than original epitope (OD of 10 μg peptide below 3 times of original peptide))	–	–	–
QDFRHYC [p4380]	1 (Weaker than original epitope (OD of 10 μg peptide below 3 times of original peptide))	–	–	–
QFKHDLC [p4391]	1 (Weaker than original epitope (OD of 10 μg peptide below 3 times of original peptide))	–	–	–
ADHDFRHC [p4740]	–	3	1	–
SPNQFRHC [p4707]	–	3	1	–
EEFKYSC [p4393]	–	2	1	–
TEFRHKAC [p4753]	–	3	–	Inhibition Capacity [4]: 2
DGLLFKHC [p4741]	–	3	1	–
SEFKHC [p4801]	–	3	1	–
TLHEFRHC [p4715]	–	3	–	Inhibition Capacity [4]: 2
EELRHSVC [p4746]	–	3	1	–
DEHPFRHC [p4730]	–	3	1	–
THTDFRHC [p4725]	–	3	1	–
QSEFKHWC [p4738]	–	3	1	–
CSEFKH [p4800]	–	3	–	Inhibition Capacity [4]: 2
NWFPHPC [p4392]	–	–	1	Binding Capacity (code (weak binding, OD halfmax 1:<4000)) [3]: 1
